Test results taken from IntAct's records for PubMed 24937146.

B1: Microtubule protein alp7 (Schizosaccharomyces pombe (strain ATCC 38366 / 972)), Q9URY2 (parent)
chain: MSDIVSSSTDYSRRSPSSSSIGTNETDHTGFHEKRQGASSESLIPPAQRSSEESMPAPKLFPKLTSKPNPQLNLKDTLNKRVSDRLQALELNKSFDFSGTPRPMHPISHPLSQHKTPEFKHRKRNVESILTPKNPSLFSSSNAASQRGSLNTAPSNFAYSHSSSLQTSASSRPPVLSNGSFPRQTNTAPLNPPVHLKDNIRNSATPSTSQADIPTQYPINSTQKQQAKYEAEIEGYKAKLAGTYHEISVLQNTIVNVSGQLIAVNDQLQQLRSGKASTSPSTKDTNMRLVEGHNEETLALQRGKYTQEEVDKLIQERMEKVAEDLHAQYSAKHTQKINAFKANYARKYEATIQELQNQIGTAPNAPKISNSNWEEERRALKADNQTLQKQLEKAIQERQDMSDFLNNFKADMAKSDKLLMQQQSQQTGDLETLRLQLQALQEELRVEREERQQLIQMSEDLVIAMDQLNLEQKS
partner: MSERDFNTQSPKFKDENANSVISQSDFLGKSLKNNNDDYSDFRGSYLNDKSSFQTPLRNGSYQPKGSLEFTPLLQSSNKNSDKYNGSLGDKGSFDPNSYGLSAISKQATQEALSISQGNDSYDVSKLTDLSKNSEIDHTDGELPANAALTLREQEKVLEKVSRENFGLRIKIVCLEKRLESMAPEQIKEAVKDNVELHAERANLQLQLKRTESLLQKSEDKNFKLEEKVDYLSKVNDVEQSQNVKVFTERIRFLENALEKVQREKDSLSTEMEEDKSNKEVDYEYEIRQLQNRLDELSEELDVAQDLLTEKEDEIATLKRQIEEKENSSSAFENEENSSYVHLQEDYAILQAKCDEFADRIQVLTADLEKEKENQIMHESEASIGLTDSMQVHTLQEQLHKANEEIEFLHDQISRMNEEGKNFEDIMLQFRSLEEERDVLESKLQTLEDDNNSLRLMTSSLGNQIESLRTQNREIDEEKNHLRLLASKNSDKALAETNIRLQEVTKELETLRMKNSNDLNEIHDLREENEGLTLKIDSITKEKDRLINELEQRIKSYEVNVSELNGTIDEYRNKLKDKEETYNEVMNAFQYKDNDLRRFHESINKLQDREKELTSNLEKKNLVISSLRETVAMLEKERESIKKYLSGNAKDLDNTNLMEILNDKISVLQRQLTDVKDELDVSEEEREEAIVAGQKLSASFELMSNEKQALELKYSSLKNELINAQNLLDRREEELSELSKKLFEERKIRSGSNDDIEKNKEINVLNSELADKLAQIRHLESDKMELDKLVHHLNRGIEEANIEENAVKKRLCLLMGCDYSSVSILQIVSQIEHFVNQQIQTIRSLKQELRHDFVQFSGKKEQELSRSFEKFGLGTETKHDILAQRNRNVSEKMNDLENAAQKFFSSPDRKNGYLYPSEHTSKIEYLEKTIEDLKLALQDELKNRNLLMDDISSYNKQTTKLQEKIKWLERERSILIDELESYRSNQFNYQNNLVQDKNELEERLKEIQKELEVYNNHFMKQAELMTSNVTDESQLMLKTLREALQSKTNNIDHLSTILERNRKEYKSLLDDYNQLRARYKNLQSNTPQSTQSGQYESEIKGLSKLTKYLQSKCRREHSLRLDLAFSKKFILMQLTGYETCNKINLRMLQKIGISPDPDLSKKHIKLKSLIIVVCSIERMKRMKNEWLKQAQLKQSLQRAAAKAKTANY
B2: Microtubule protein alp7 (Schizosaccharomyces pombe (strain ATCC 38366 / 972)), Q9URY2 (parent)
chain: B1 chain
partner: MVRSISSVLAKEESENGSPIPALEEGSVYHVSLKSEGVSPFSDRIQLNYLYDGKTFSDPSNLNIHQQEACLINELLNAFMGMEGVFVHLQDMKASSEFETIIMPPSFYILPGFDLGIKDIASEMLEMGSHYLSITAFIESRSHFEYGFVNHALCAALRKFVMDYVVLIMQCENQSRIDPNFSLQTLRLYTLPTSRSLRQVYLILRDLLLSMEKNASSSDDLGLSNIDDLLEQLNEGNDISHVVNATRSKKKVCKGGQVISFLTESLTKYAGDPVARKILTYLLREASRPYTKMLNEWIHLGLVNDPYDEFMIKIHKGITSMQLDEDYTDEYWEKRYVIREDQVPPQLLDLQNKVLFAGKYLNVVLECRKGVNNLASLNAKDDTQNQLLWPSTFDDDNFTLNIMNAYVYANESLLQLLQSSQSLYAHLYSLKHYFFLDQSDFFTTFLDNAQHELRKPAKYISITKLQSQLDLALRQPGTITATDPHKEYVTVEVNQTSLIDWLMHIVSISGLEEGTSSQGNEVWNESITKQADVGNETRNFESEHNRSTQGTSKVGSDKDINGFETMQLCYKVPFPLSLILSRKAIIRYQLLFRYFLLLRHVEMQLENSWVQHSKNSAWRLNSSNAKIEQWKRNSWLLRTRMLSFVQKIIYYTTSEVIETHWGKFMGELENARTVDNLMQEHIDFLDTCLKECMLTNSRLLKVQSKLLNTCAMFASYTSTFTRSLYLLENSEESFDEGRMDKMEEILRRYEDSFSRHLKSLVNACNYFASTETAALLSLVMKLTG
B3: Microtubule protein alp7 (Schizosaccharomyces pombe (strain ATCC 38366 / 972)), Q9URY2 (parent)
chain: B1 chain
partner: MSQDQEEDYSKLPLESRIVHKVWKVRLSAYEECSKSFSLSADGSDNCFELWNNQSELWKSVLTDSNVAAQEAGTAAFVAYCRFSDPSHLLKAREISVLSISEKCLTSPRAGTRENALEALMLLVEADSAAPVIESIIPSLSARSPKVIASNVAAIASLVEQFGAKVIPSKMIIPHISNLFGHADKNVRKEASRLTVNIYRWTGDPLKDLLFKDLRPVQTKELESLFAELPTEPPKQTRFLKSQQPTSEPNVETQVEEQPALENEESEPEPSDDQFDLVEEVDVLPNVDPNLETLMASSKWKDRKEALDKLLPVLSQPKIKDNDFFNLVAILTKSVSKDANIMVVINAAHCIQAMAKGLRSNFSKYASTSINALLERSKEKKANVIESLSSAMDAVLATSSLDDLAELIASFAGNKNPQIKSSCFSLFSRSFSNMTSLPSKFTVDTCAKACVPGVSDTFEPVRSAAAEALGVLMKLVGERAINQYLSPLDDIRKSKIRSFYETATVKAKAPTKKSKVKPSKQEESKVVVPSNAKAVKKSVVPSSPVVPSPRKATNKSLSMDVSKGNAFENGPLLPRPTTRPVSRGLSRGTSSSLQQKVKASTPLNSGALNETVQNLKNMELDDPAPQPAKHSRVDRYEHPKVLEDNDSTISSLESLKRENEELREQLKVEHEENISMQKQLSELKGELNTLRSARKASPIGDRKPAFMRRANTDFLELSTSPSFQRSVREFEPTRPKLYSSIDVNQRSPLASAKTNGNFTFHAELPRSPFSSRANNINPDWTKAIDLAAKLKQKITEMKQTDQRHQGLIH

Variants of: B1
Settings: with pcp1_schpo pcp1, Q92351
With K341A;Y344A;R346A;K347A;Y348A the “effect of a mutation on the interaction” value was “disrupting interaction”.

Variants of: B2
Settings: with spc97_schpo alp4, Q9Y705
With K341A;Y344A;R346A;K347A;Y348A the “effect of a mutation on the interaction” value was “disrupting interaction”.

Variants of: B3
Settings: with alp14_schpo alp14, O94534
K341A;Y344A;R346A;K347A;Y348A was tested, and the “effect of a mutation on the interaction” value was “disrupting interaction”.
